From PMC2920259 (Nature structural & molecular biology, 2010)

Target: the molecule itself
Experiment: crystal structure

B1: IbpAFic2^H3717A (domain or fragment, Histophilus somni, UniProt Q06277 3482-3797, looked up)
chain: DETANKVNYQDLEDNLNLKGLISLEDDRNANFESNVLKNEKFLDEAREISKKSIPEATVKQMSHLPEFDDILTEGAKKVESRINKAITFRPSVEEFSEIQDLVKTLPKTKVIEDLSTKTNEITEALAATSKTIQRTPELKEQLKTAIEDFLQNSQGKPLTVQMIENLNHGLRPDEGEGRLLYKKENLTKENAVFSSPEAAKIQLAETVDFINRAKNEGIEPSVVGALVYQRLIAYAPFAEGNGRMARVIVNKILLDAGYPAFTKFSDEFEPQIIPQTKASTKSATSSEVVVEFLKELAKKGSKEDNEQNLEKTDRT
B1: binds.
